Source: the DeepSol protein solubility set

Assay: soluble on expression in E. coli; label from the status in PepcDB or PDB records

Sequence | soluble on expression in E. coli
MGGLQQRCLWEVVTPRLSGAASLNGEQRADVCVIGAGFTGLSAALHLLEAGRSVCVLEAYEVGHGGSGRNVGLINAGTWIPPDEVVATLGAEQGEKLNAVLGRAPALVMETIERLGIDCQLRREGTLHMSHNASGVADLQRRHAQWTRRGAPLELLTGAACHEACGTRRISAALLDRRAGTLNPMAYSRGLATAVVQRGGQLYQRSPVLALERQGALWAVRSSAGAVLAEQVVIASNAYTEGEWTNLRRHFFPGYYYQVASAPLHGAAAERILPHGQGSWDTRTVLSSIRRDAQGRLLLGSLGNGANKPAWFLRQWADRIQSHYFPDLGQVNWEYSWTGCIAFTPDHLMRLFEPAEGLLAVTGYNGRGVTTGTVVGKAFADYLLSGERATLPLPFSDMKPVPAARLRSCAYEMGFSLYHAGQCLRVVLLEHHHHHH | soluble
MAHHHHHHMGRLEIRVCGARNVANVQRVGKPDPYVKVKLGNSKKSQIKYKTHVAENCLNPVWNELFKFQVADYDSMQVVFELWNDNVIVDDLLGSYSLSLNGLTRGVVIDTWVLLEGTKGSSSELHLRVLAVDFGRDPGPGDRLTLSLEGDTMMPSTGQTYRPPKNYVPPTQGIVLQSYPPAPLGPPPPVVYSPSAAPRPQVQYGYVTPPQPQRYACGAPPPPPQQPPSQGYGYGAVQAPQNYSYGAPPPPQPMYGAPQLPQCLPYAAGPPPPQMYGPPPPQRRPVQMAYGIPPDM | not soluble
MGSDKIHHHHHHMFRHFRSRFGTPAWAGVNEDDFLLVRSWFGHGRHHGRDRDKHFGNEMFGRGWGDEHRTRRGDIKFILLELLSEHPSHGYDLIKEMETRYGGFRRLSPGSVYPTLQLLEEGGYLKSAQEGGKRIYTITDEGRKLLAERAQQETSDTPWDTVKSFVTGKPQEFIELRNAATELAAVVVQVARSGNVERINRVRELLEQVKREIYTILAEK | not soluble
MSLKIDSIIFDLDGTLWNSIEGVCEAWKVVLKRHSNINKIITPKDIKASMGLQIDEIGKLLFPEEDEKMQLQLMNECCDEEKLYLGEHGGKLFAKLEPTLNKLSQKYKLFIVSNCEDGYIQSFFKAHGLNKYFTDFECSGVTGLSKGENNKLIIKRNSLKNPVYVGDTLKDFESAKIANIPFVYARYGFGDVNEYDYVIDSFEEMLTLDEGHHHHHH | soluble
MSLSSLEGQENSFTINSVDMKSLPDWTVQNGKNLTLQCFADVSTTSHVKPQHQMLFYKDDVLFYNISSMKSTESYFIPEVRIYDSGTYKCTVIVNNKEKTTAEYQLLVEGVPSPRVTLDKKEAIQGGIVRVNCSVPEEKAPIHFTIEKLELNEKMVKLKREKNSRDQNFVILEFPVEEQDRVLSFRCQARIISGIHMQTSESTKSELVTVTESFSTPKFHISPTGMIMEGAQLHIKCTIQVTHLAQEFPEIIIQKDKAIVAHNRHGNKAVYSVMAMVEHSGNYTCKVESSRISKVSSIVVNITELFSKPELESSFTHLDQGERLNLSCSIPGAPPANFTIQKEDTIVSQTQDFTKIASKSDSGTYICTAGIDKVVKKSNTVQIVVCEMLSEGHHHHHH | not soluble
MLEEELARKIERYFSIEEEALKKIRISPAEGSFLRKIAEDNMQMILSYYSDAKHFYAKGDLINAFAALNYSYGWIDAGVRLGIFDGAGDHRLFTLYE | not soluble
MNQLIFDFAAHDYPSFDKFLGTENAELVYVLRHKHGQFIYVWGEEGAGKSHLLQAWVAQALEAGKNAAYIDAASMPLTDAAFEAEYLAVDQVEKLGNEEQALLFSIFNRFRNSGKGFLLLGSEYTPQQLVIREDLRTRMAYCLVYEVKPLTDQEKIDALASMAAARQVTVDSEIFEYLLKHWRRDMDSLMMMLDTLDNYAVTMGKRITLPLLRQLLKQQETQLEHHHHHH | soluble
MAHHHHHHMSVRERAVVLVDGPAVVHRWYHRWSYTSKHTPVDVKRFTITNARHIIATAHSFDPSHLAQHLLSPQVEYAHTPKHNKIIVCFDQGDGGRRELYPAYKENRAEREHAAELSVIKKVAIKVFTGEPKNTLIVLPDLDAKLKDVDAEADDIIATLALHNQQLKIPTVVMSHDYDLYQLIDEANKCYHYDIRTKHLVSEKGVIERVGVHPKLVRDYKSLAGDSSDNIPGVKGIGKTRALQLLKKYGDLEGVLTKGKKKQGGHLGDLLRAGAADAELSRKLVELRSCPKVLKACEAFMKL | soluble
MGSDKIHHHHHHMTFEKNEHKDIAVIGAGPVGMLAALNLAHKGYSVCLIGPPVDTDELRTTALMMPAIHMLQKLNIWNIVKSHAAALSFIRIIDITSRIIRAPTVNFSSAEIGEEAFGYNIPNVELNNALVASVAHTPNIKRFFSSAHFFHHQPNHIHVTLADGGVVQASLIVAADGRDSRTREAADISVKKWNYPQTALVLNFSHDLSHQNTSTEFHTESGPFTQVPLPGHRSSLVWVVNPSRAEELLRLESKVIAKVIEEQMQSMLGKLTLETPIQAWPLSGLISQRFAANRTILVGEAAHVFPPIGAQGLNLGFRDIQTLIDILPNKISDFNSKKIVAHYNKCRKPDILIRSGSVHMFNSALLSNMLPVHIIRSFGLGLLRNCSPLRNLFTREGIYPGYGFKKIMQTFPIKSHKQESSIFFSVLVKDRDSEMISKSSLF | not soluble
MAAIHINHDVFNKYHTNGKLRLTTGYVQEAIENNGYPGHDGIVQVLKGKVEQGEQLGHAFTFRIRISDGVFQYNALMSADIDDQIKREVEHLVEGTIIALTKFEIYDQGEGAKNCFLIKGYKILSRYHQVLTSPEVKPRSHSGKPDEHKGYRPNIIIEDVWPEAEGMAADYQENMANPPAAKAPKREFGEEASYNRAAAPEATRARAVPPPARRTASNTERGVMPIAMVTPYVSNFKIHGMVSRKEEIRTFPAKNTKVFNFEITDSNGDTIRCTAFNEVAESLYTTITENLSYYLSGGSVKQANKKFNNTGHDYEITLRSDSIIEAGGELLAAPKLILKRVKLGEIAGYAGQLIDVLVVVEKMDPEATEFTSKAGKSLIKREMELIDESGALVRLTLWGDEATKALVDDYVQKVIAFKGVIPREFNGGFSLGTGSATRIISVPEIAGVSELYDWYANVKPTTEVKMMSQAAGGSNEAPRTIAGLQEMQFGKDSDKGDYATVKAMITRVNPTNALYRGCASEGCQKKLVGENGDYRCEKCNKNMNKFKWLYMMQFELSDETGQVYVTAFGDSAAKIVGKSAAELGELHDESPDEYNAIFERLQFVPKMWRLRCKMDSYNEEVRQKMTVYGVDDVNQDKYIENLKQMIEQMQQMSDY | soluble
MSLNIAMTGATGYIGKHLSNYLTEKGGHRIIPLGRAMFREGMSGLLVQTLTHCDVIINLAGAPINQRWTPEHKQELFNSRITVTHRIIRALNAVKTKPKLMISASAVGYYPSLVESDEYTQTRGDGFLSDLCYAWEKEAKRCPQPTRLVITRFGVVLSPDGGAMQQMLRPLRATKVAAVIGPGTQPFPWIDIRDLCCAMAFFIENEELRGVFNLVAPQAVSQSTFTRAMGKAYHAWTTEGHHHHHH | not soluble
MGSDKIHHHHHHMELQVFTNEQFGEVRTATINNQIYFNLNDCCQILELSNPRKTIERLNKDGVTTSDIIDSLGRTQQANFINESNFYKLVFQSRKPEAEKFADWVTSEVLPSIRKHGAYMTEQTLEQALTSPDFLIRLANELKEEKERSRQLEAEKSILSVENMVMKPKADYFDDLVDRNLLTSFRETAKQLKVKERRFIQFLLDKKYVYRDKKGKLMPFADKNNGLFEVKESVNEKTNWAGTQTLITPKGRETFRLLFI | not soluble
MGSDKIHHHHHHMGPYRFVNREFLIITYRTDMDRLREIVPEPLEVKEPLVHYEFIRMPDSTGFGDYTESGQVIPVEYKGQPGGYTLAMYLNDHPPIAGGRELWGFPKKLAQPTLQTHIDTLLGTLDYGPVRVATGTMGYKHQELDLEEQAKRLAGANFLLKIIPHVDGSARVCELVRYYLQDIEMKGAWTGPASLQLAPHALAPVADLPVLEIVEARHLLADLTLGLGEVVYDYLAQ | not soluble
MLSTVFLLATLAASAAADGYSCARNTLINPPQDLSKPYYYPETWRENMEPPQYAPNQKCNWKINVPQGMYATVIFYKKTKYEIGIQCAYPGKDLEYINDYEQSPYIFTSPQFQVDLKVGDKPGAFSFKVVWSKYPPGSAMNIELDGIHSISGVASSFYTTYTAINQVMIVGFSVPDVDTNLLRQSAIYDGDSVNAKFLGNLFDALEGQIVSTGNKLTIYTFGLENQVDNTLFMGLDTKAAGDIEQYTGLNCPVDRTRGCSIILHSYFYATAEARISRQPDYLMLPDSFPYNATLKIYGETLQDSSLFAAVNKSNYQTMFPMKVTNSLKIYHLDHDIVSIDVTNNADEAKWSTVYDGRNIKVQSMDYGRTSFYQDTMETFTTEPNTQMYFKFNVKYFDVNGPTSLAIKVYNNAKIVYSETYTATNLPTPYNVRVYGDKMDINYQTFGNYTQGFEVNIVTTKNG | not soluble
